# Assay: yeast display, Sf9 membrane polyspecificity reagent, FACS + sequencing; frameworks hold sequencing errors
# Method in brief: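 Synthetic nanobody libraries on Saccharomyces cerevisiae BJ5465 were galactose-induced for 36–48 hours, stained 1 hour at 4 °C with 10% biotinylated, detergent-solubilized Sf9 membrane reagent and enriched on streptavidin microbeads. FACS then separated cells into low and high (top ~1%) gates by anti-HA (expression) and streptavidin (reagent binding) fluorescence. Genes were colony-PCR amplified, MiSeq 2 × 250 sequenced and CDR-length filtered. A clone's polyreactivity label is that of its gate of origin.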
row,Sequence,polyreactivity (PSR sort gate)
1,QVQLVESGGGLVQAGGSLRLSCAASGFIFRWYAMGGYRPAPGKERELVASITRCGSTYYADSVKGRFTISRDNAKNTVYLQMNSLKPEDTAVYYCAVDYLSPKYDYWGHGTQVTVSS,high polyreactivity
2,QVQLVESGGGLVQAGGSLRLSCAASGFIFRWYAMGWSRQAPGKERELVAAISRGGSTNYADSVKGRFTISRDNAKNTVYLQMISLKPEDTAVYYCNARYVSYSGRYVIGQYVKYDYWGQGTQVTVSS,high polyreactivity
3,QVQLVESGGGLVQAGGSLRLSCAASGFIFRWYAMGWSRQAPGKERELVAAISSGGSTYYADSVKGRFTISRDNAKNTVYLQMNSLKPEDTAVYYCAVRRYSEGDYWGQGTQVTVSS,high polyreactivity
4,QVQLVESGGGLVQAGGSLRLSCAASGFIFRWYAMGWYRPAPGKERELVASINWSGSRTNYADSVKGRFTISRDNAKNTVYLQMNSLKPEDTAVYYCNAYGGLQYDYWGQGTQVTVSS,high polyreactivity
5,QVQLVESGGGLVQAGGSLRLSCAASGFIFRWYAMGWYRQAPGKERELVASINWSGSRTNYADSVKGRFTISRDNAKYTVYLQMNSLKPEDTAVYYCNAYGGLQYDYWGQGTQVSVSS,high polyreactivity
6,QVQLVESGGGLVQAGGSLRLSCAASGFIFRWYAMGWYRQAPWKERELVASINTDGDSTYYADSVKGRFTISRDNAKNTVYLQMNSLKPEDTAVYYCAADYVGYWWYTSDNYDYWGQGTQVTVSS,high polyreactivity
7,QVQLVESGGGLVQAGGSLRLSCAASGFIFRWYTLGWYRQAPGKERELVAAISRSGGSTYYADSVKGRFTISRDNAKNTVYLQMNSLKPEDTAVYYCNAYDHPIYRLDYWGQGTQVTVSS,high polyreactivity
8,QVQLVESGGGLVQAGGSLRLSCAASGFIFRYNAMGWYIQAPGKERELVASIDWSGGSTYYADSVKGGFTISRDNAKITVYLQMNSLKPEDTEVYYCAADTSYWYDYYIDYVGYYYWGQGTQVTVSS,high polyreactivity
9,QVQLVESGGGLVQAGGSLRLSCAASGFIFRYNAMGWYRQAPGKEREFVAAISQGGASTYYADSVKGRFTISRDNAKNTVYLQMNSLKPEDTAVYYCAREPSIFTPSYDYWGQGTQVTVSS,low polyreactivity
10,QVQLVESGGGLVQAGGSLRLSCAASGFIFRYNAMGWYRQAPGKEREFVAAISWGGGRTYYADSVKGRFTISRDNAKNTVYLQMNSLKPEDTAVYYCAAVSPHNRYGYKYDYWGQGTQVTVSS,high polyreactivity
11,QVQLVESGGGLVQAGGSLRLSCAASGFIFRYNTMGWYRQAPGKERELVAAISVSGARTYYADSVKGRFTISRDNAKNTVYLQMNSLKPEDTAVYYCNRRYPFYSRYNNDYWGQGTQVTVSS,high polyreactivity
12,QVQLVESGGGLVQAGGSLRLSCAASGFIFRYYALGWYRQAPGKERELVAAIDYSGGSTNYADSVKGRFTISRDNAKNTVYLQMNSLKPEDTGVYYCATVSDNRYYYWGQGTQVTVSS,low polyreactivity
13,QVQLVESGGGLVQAGGSLRLSCAASGFIFRYYAMGWYRHAPGKERELVAAISSGGRTSYADSVKGRFTISRDNAKNTVYLQMNSLKPEDTAVYYCAADSWRGLFYYGNDYWGQGTQVTVSS,high polyreactivity
14,QVQLVESGGGLVQAGGSLRLSCAASGFIFRYYAMGWYRQAPGKERELVAAIDYSGGSTNYADSVKGRFTISRDNAKNTVYLQMNSLKPEDTAVYYYDYWGQGTQVTVSS,low polyreactivity
15,QVQLVESGGGLVQAGGSLRLSCAASGFIFRYYAMGWYRQAPGKERELVAAISSGGGTYYADSVKGRFTISRDNAKNTVYLQMNSLKPEDTAVYYCNKASTSYYRFNYWGQGTQVTVSS,high polyreactivity
16,QVQLVESGGGLVQAGGSLRLSCAASGFIFRYYAMGWYRQAPGKERELVAAISWSGGSTYYADSVKGRFTISRDNAMNTVYLQMNSLKPEDTAVYYCAADRYAILFYAEDYWGQGTQVTVSS,low polyreactivity
17,QVQLVESGGGLVQAGGSLRLSCAASGFIFRYYAMGWYRQAPGKERELVAAISWSGGTTYYADSVKGRFTISRDNAKNTVYLQMNSLKPEDTAVYYCAARVARISVPYDYWGQGTEVTVSS,low polyreactivity
18,QVQLVESGGGLVQAGGSLRLSCAASGFIFRYYAMGWYRQAPGKERELVAAITSGGASTYYADSVKGRFTISRDNAKNTVYLQMNSLKPEDTAVYYCAADTSSYSEYDYWGQGTQVTVSS,low polyreactivity
19,QVQLVESGGGLVQAGGSLRLSCAASGFIFRYYAMGWYRQAPGKERELVARITPRGGRTYYADSVKGRFTISRDNAKNTVYLQMNSLKPEDTAVYYCAAVYPVLDEFGYWGQGTQVTVSS,high polyreactivity
20,QVQLVESGGGLVQAGGSLRLSCAASGFIFRYYDMGWYRQAPGKERELVAAISWSGCSTYYADSVKGRFTISRDNAKNTVYLQMNSLKPEYTAVYYCAAERYAMLFYAEDYWGQGTQVTVSS,low polyreactivity
21,QVQLVESGGGLVQAGGSLRLSCAASGFIFRYYTMGWYRQAPVKERELVASITRSGGSTYYADSVKGRFTISRDNGKNTVYLQMNSLKPEDTAVYYCAAVVYLRFRNSYWGQGTQVTVSS,high polyreactivity
22,QVQLVESGGGLVQAGGSLRLSCAASGFIFSANDMGGYRQAPGKERELVADIDSSGRTNYADSVKGRFTISRDNAKNTVYLQMNSLNPEDTAVYYCATPPDDKGGGYLGYDYWGQGTEVTVSS,low polyreactivity

row,Sequence,polyreactivity (PSR sort gate)
1,QVQLVESGGGLVQAGGSLRLSCAASGFIFSFDNAMGWYRQAPGKERELVAAISSGTTTHYADSVKGRFTISRDNAKNTVYLQMNSLKREDTAVYYCAAGTATDVASIGATKDYDYWGQGTQGTVSS,low polyreactivity
2,QVQLVESGGGLVQAGGSLRLSCAASGFIFSFYVMGWYRQAPGKERELVAAISTSGASTYYADSVKGRFTISRDNAKNTVYLQMNSLKPEDTAVFYCNVVYRYGGYNYWGQGTQVTVSS,high polyreactivity
3,QVQLVESGGGLVQAGGSLRLSCAASGFIFSGNAMGWYRQAPGKEREFVAAISTSAGTTNYADSVKGRFTISRDNAKNTVYLQMNSLKPEDTAVYYCAARSTRRRIYGYWGQGTQVTVSS,high polyreactivity
4,QVQLVESGGGLVQAGGSLRLSCAASGFIFSGYAMGWYRQAPGKERELVAAIRWSTGSTYYADSVKGRFTISRDNAKNTVYLQMNSLKPEDTAVYYCNAYRYQWAQSTEYDYWGQGTQVTVSS,high polyreactivity
5,QVQLVESGGGLVQAGGSLRLSCAASGFIFSGYAMGWYRQAPGKERELVAAISGGGSTYYADSVKGRFTSSRDNAKNTVYLQMNNLKPEETADYYCAARVYWSVRYYYWGQGTQVTVSS,high polyreactivity
6,QVQLVESGGGLVQAGGSLRLSCAASGFIFSGYAMGWYRQAPGKERELVAAISTRGGRTYYADSVKGRFTISRDNAKNTVYLQMNSLKPEDTAVYYCAADSLYPELDYWGQGTQVTVSS,high polyreactivity
7,QVQLVESGGGLVQAGGSLRLSCAASGFIFSHNAMGWYRQAPGKERELVAAIDYIDGSTYYADSVKGRFTISRDNAKNTVYLQMNSLKPEDTAVYYCAADGLFYWWHYGYWGQGTQVTVSS,low polyreactivity
8,QVQLVESGGGLVQAGGSLRLSCAASGFIFSHNAMGWYRQAPGKERELVAAIDYIDGSTYYADSVKGRFTISRDNAKYTVYLQMNSLIPEDTAVYDCAADGLFYWWHYGYWGQGSQVTVSS,low polyreactivity
9,QVQLVESGGGLVQAGGSLRLSCAASGFIFSHYAMGWYRQSPGKEREFVATSSKRGGSTTYADSVKGRFTISRDNAKNTVYLQMNSLKPEDTAVYYCAADRYRSFERYDYWGQGTQVTVSS,high polyreactivity
10,QVQLVESGGGLVQAGGSLRLSCAASGFIFSKNAMGWYRQAPGKERELVARITRRVGSTYYADSVKGRFTISRDNAKNTVYIQMNSLKPEDTAVYYCAVLPRVKDGTGGDYWGQGTQVTVSS,high polyreactivity
11,QVQLVESGGGLVQAGGSLRLSCAASGFIFSKYAMGWYRQAPGKERELVAAISTSGASTYYADSVKGRFTISRDNAKNTVYLQMNSLKPEDTAVYYCNVPRYSPIRNYDYWGQGTQVTVSS,high polyreactivity
12,QVQLVESGGGLVQAGGSLRLSCAASGFIFSKYGMGWYRQAPGKERELVAAISIRGGNTYYADSVKGRFTISRDNAKNTFYLQMYSLKPEDTAVYYCAAGLRAYPYGTRSGVYYYWGQGTQVTVSS,high polyreactivity
13,QVQLVESGGGLVQAGGSLRLSCAASGFIFSLYAMGWYRQAPGKERELVAAITRSGGSTYYADSVKGRFTISRDNAKNTVYLQMNSLKPEDTAVYYCAASRGRGGYGFDYWGQGTQVTVSS,high polyreactivity
14,QVQLVESGGGLVQAGGSLRLSCAASGFIFSNNAMGWSRQAPGKERELVAAITSSGGRTYYADSVKGRFTISRDNAKNTVYLLMNSLKPEDTAVYYCAAARYDIMGYWGQGTQVTVSS,high polyreactivity
15,QVQLVESGGGLVQAGGSLRLSCAASGFIFSNYAMGWYRQAPGKERELVARISSSGGSTYYADSVKVRFTISRDIAKNTVYLQMNSLKPEVTAVYYCAAGFNLPAWGWAYYYWGQGTQVTVSS,high polyreactivity
16,QVQLVESGGGLVQAGGSLRLSCAASGFIFSPYAMGWYRQAPGKVRELVAAISRRGGSTYYADSVKGRFTISRDNAKNTVYLQMNSLKPEDTAVYYCAAVYGASQVDYDYWGQGTQVTVSS,high polyreactivity
17,QVQLVESGGGLVQAGGSLRLSCAASGFIFSQYAMGWYRQAPGKERELVAAISYRGGSTYYADSVKGRFTISRDNAKNTVYLQMNSLKPEDTAVYYCNAGRRSQTYLGTCDYWGQGTQVTVSS,high polyreactivity
18,QVQLVESGGGLVQAGGSLRLSCAASGFIFSRNAMGWYRQAPGNERDLVAAISLRGGSTYYTDSVKGRFTISRDNAKNTVYLQMISLKPEDTAVYYCAAVSGRYLTRDGYWGQGTQVTVSS,high polyreactivity
19,QVQLVESGGGLVQAGGSLRLSCAASGFIFSRYAKGWSRPAPGKERELVAAITRGGGDTYYADSVKGRFTISRDNAKNTVYLQMNSLKPEDTAVYYCNARYRRYTTRFGAMDYWGQGTQVTVSS,high polyreactivity
20,QVQLVESGGGLVQAGGSLRLSCAASGFIFSRYAMGCYSPAPGKVIELVAAISSRGGSTYYADSVKGRFTISRDNAKNTVYLQMNSLKPEDTAVYYCAARGPTFGVDYGYWGQGTQVTLSS,high polyreactivity
21,QVQLVESGGGLVQAGGSLRLSCAASGFIFSRYAMGWYRQAPGKERELGATINTNGGSTYYAYSVKGRFTISRDNAKNTVYLQMNSLKPEDTAVYYCNAKYQALQRSWGRYDYWGQGTQVTVSS,low polyreactivity

# — the nanobody polyreactivity screen of Harvey et al. (2022)
